Data set [1] in a line: GLP Aggregation Assay (time to onset of aggregation, turbidity at 350 nm). The data set is classed as physicochemical. Particulars: for Aggregation Time: 0.3 mg/mL in 10 mM citrate, 10 mM phosphate, 150 mM NaCl, pH 7.4 to 7.5, 37° C., stirred, turbidity at 350 nm; for Aggregation Time in Hours: *Aggregation time determined at 30° C. As for the experimental part:
GLP peptides of this invention were analyzed with respect to their potential to aggregate in solution. In general, peptides in solution were stirred at elevated temperature in a suitable buffer while recording turbidity at 350 nm as a function of time. Time to the onset of aggregation was measured to quantify the potential of a given GLP molecule to aggregate under these stressed conditions.
A GLP-1 compound was first dissolved under alkaline conditions (pH 10.5) for 30 minutes to dissolve any pre-aggregated material. The solution was then adjusted to pH 7.4 and filtered. Specifically, 4 mg of a lyophilized GLP-1 compound was dissolved in 3 ml of 10 mM phosphate/10 mM citrate. The pH was adjusted to 10.0-10.5 and held for 30 minutes. The solution was adjusted with HCl to pH 7.4 and filtered through a suitable filter, for example a Millex GV syringe filter (Millipore Corporation, Bedford, Mass.). This solution was then diluted to a final sample containing 0.3 mg/mL protein in 10 mM citrate, 10 mM phosphate, 150 mM NaCl, and adjusted to pH 7.4 to 7.5. […] Every five minutes the turbidity of the solution was measured at 350 nm on an AVIV Model 14DS UV-VIS spectrophotometer (Lakewood, N.J.). For 30 seconds prior to and during the measurement the solution was stirred using a magnetic stir bar from Starna Cells, Inc. (Atascadero, Calif.). An increase in OD at 350 nm indicates aggregation of the GLP-peptide. The time to aggregation was approximated by the intersection of linear fits to the pre-growth and growth phase according to method of Drake (Arvinte T, Cudd A, and Drake A F. (1993) J. Bio. Chem. 268, 6415-6422).
The cuvette was cleaned between experiments with a caustic soap solution (e.g., Contrad-70).
The results for a number of GLP-1 compounds of the present invention are reported in Table 1 as the time in hours required for the compound to aggregate.

A further data set deals with GLP-1 receptor. Put plainly: GLP-1 receptor activation, in vitro assays. The data set is classed as cell-based. The settings on record: activity relative to the activity of GLP-1(7-37)OH. The source says: “Insulinotropic activity” refers to stimulating insulin secretion in response to elevated glucose levels, thereby causing glucose uptake by cells and decreased serum glucose levels. Insulinotropic activity can be assessed by methods known in the art, including using in vivo experiments and in vitro assays that measure GLP-1 receptor binding activity or receptor activation, e.g., assays employing pancreatic islet cells or insulinoma cells, as described in EP 619,322 to Gelfand, et al., and U.S. Pat. No. 5,120,712, respectively. The entire teachings of these references are incorporated herein by reference.
The ability of the GLP-1 compounds of the present invention to activate the GLP-1 receptor was assessed using in vitro assays such as those described in EP 619,322 to Gelfand, et al., and U.S. Pat. No. 5,120,712, respectively. The entire teachings of these references are incorporated herein by reference.

Data set [2] can be described thus: Zinc precipitation of GLP-1 compounds (A280 of supernatant). The data set is classed as physicochemical. Particulars: HEPES pH 7.4, 22° C., 18 hours. As for the experimental part:
Individual GLP-1 compounds were prepared as described in Examples 1 or 2. 3 mg of an individual lyophilized GLP molecule was dissolved in 3 ml 0.1 M HEPES buffer pH 10.5. The pH of the resulting solution was then adjusted to between 10.0 and 10.5 with 0.2 N NaOH. The solution was stirred at ambient temperature for 30 minutes and the solution was then adjusted to a pH of 7.4 with 0.2 N HCl. The solution was filtered through an appropriate syringe filter, for example a Millex GV syringe filter (Millipore Corporation, Bedford, Mass.), and the concentration of the GLP-1 compound was estimated by measuring the absorption at 280 nm in a spectrophotometer, for example a Beckman DU640. The protein concentration was then adjusted to 200 μM in HEPES pH 7.4.
The filtered GLP-1 solutions (100 μl) were diluted with 100 μl of 0.1 M HEPES pH 7.4 containing various levels of zinc chloride in an ELISA plate, (e.g. Falcon Microtest™ 96) resulting in 200 μl of solution containing various levels of zinc chloride and 100 μM GLP-1 compounds. These solutions were incubated at ambient temperature (22° C.) for 18 hours and then centrifuged, for example, in a Jouan CR412 centrifuge with microplate adapters. 150 μl of the supernatants after centrifugation were then transferred to a UV-readable ELISA microtiter plate (e.g. Costar UV plate) and the OD at 280 was determined in a microplate reader (e.g. Molecular Devices SPECTRAmax PLUS, SOFTmax PRO). A280 values are the result of two independent determinations.

Where [3] appears, read: Zn/GLP-1 molar ratio 0, 100 μM GLP-1 compound.
Where [4] appears, read: Zn/GLP-1 molar ratio 0.3, 100 μM GLP-1 compound.
[5] abbreviates: Zn/GLP-1 molar ratio 0.5, 100 μM GLP-1 compound.
[6] abbreviates: Zn/GLP-1 molar ratio 0.7, 100 μM GLP-1 compound.
[7] abbreviates: Zn/GLP-1 molar ratio 1, 100 μM GLP-1 compound.
[8] abbreviates: Zn/GLP-1 molar ratio 2, 100 μM GLP-1 compound.
Where [9] appears, read: Zn/GLP-1 molar ratio 3, 100 μM GLP-1 compound.
Setting [10] is: Zn/GLP-1 molar ratio 5, 100 μM GLP-1 compound.

Where no end group is shown, it is not given here.

“Ala^8-Glu^26-GLP-1(7-37)OH (HAEGTFTSDVSSYLEGQAAEEFIAWLVKGRG)”: the “Aggregation Time” value in data set [1] was more than 24 h. In addition, the “GLP-1 Receptor Activation” value in the data set on GLP-1 receptor is on record as 0.7.
As for “Ala^8-His^26-GLP-1(7-37)OH (HAEGTFTSDVSSYLEGQAAHEFIAWLVKGRG)”, the “Aggregation Time” value in data set [1] is more than 24 h. In the data set with GLP-1 receptor, the “GLP-1 Receptor Activation” value is 0.8.
In the case of GLP-1(7-37)OH [reference compound], in data set [1], the “Aggregation Time” value amounted to 1 h. The A280 is 0.337 in data set [2] (setting [3]); 0.318 in data set [2] (setting [4]); 0.329 in data set [2] (setting [5]); 0.253 in data set [2] (setting [6]); 0.148 in data set [2] (setting [7]); 0.092 in data set [2] (setting [8]). The A280 is given as 0.081 in data set [2] (setting [9]) and 0.074 in data set [2] (setting [10]).
As for “Gly^8-GLP-1(7-37)OH (HGEGTFTSDVSSYLEGQAAKEFIAWLVKGRG-OH; UniProt P01275 98-128, looked up, variant A8G) [reference compound]”, the A280 worked out at 0.32 in data set [2] (setting [3]); 0.166 in data set [2] (setting [4]); 0.151 in data set [2] (setting [5]); 0.156 in data set [2] (setting [6]); 0.119 in data set [2] (setting [7]); 0.089 in data set [2] (setting [8]). For the same substance, the A280 in data set [2] (setting [9]) turned out to be 0.085; in data set [2] (setting [10]) it was 0.078.
As for Gly^8-Glu^22-GLP-1(7-37)OH, in data set [1], the “Aggregation Time” value was 19 h.
“Gly^8-Glu^30-GLP-1(7-37)OH (HGEGTFTSDVSSYLEGQAAKEFIEWLVKGRG)”: the “Aggregation Time” value in data set [1] was more than 40 h. Further, in the data set on GLP-1 receptor, the “GLP-1 Receptor Activation” value worked out at 0.29.
With “Gly^8-His^11-GLP-1(7-37)OH (HGEGHFTSDVSSYLEGQAAKEFIAWLVKGRG)”, the “Aggregation Time in Hours” value in data set [1] was 9* Hours. The “GLP-1 Receptor Activation” value in the data set on GLP-1 receptor is recorded as 0.282.
As for “Val^8-Ala^11-GLP-1(7-37)OH (HVEGAFTSDVSSYLEGQAAKEFIAWLVKGRG)”, in data set [1], the “Aggregation Time” value turned out to be 10 h. The “GLP-1 Receptor Activation” value with GLP-1 receptor is listed as 0.021.
Consider “Val^8-Ala^16-GLP-1(7-37)OH (HVEGTFTSDASSYLEGQAAKEFIAWLVKGRG)”, for which the “Aggregation Time” value in data set [1] came to 16 h. In addition, the “GLP-1 Receptor Activation” value with GLP-1 receptor stood at 0.112.
On to “Val^8-Ala^27-GLP-1(7-37)OH (HVEGTFTSDVSSYLEGQAAKAFIAWLVKGRG)”, for which the “Aggregation Time” value in data set [1] turned out to be 2 h.
Regarding “Val^8-Ala^33-GLP-1(7-37)OH (HVEGTFTSDVSSYLEGQAAKEFIAWLAKGRG)”, the “Aggregation Time” value in data set [1] turned out to be 20 h. Further, the “GLP-1 Receptor Activation” value in the data set with GLP-1 receptor turned out to be 0.1.
Consider “Val^8-Asp^30-GLP-1(7-37)OH (HVEGTFTSDVSSYLEGQAAKEFIDWLVKGRG)”, for which, in data set [1], the “Aggregation Time” value was more than 45 h. For the same substance, the “GLP-1 Receptor Activation” value in the data set with GLP-1 receptor came out at 0.15.
“Val^8-GLP-1(7-37)OH [reference compound]”: the “Aggregation Time” value in data set [1] worked out at 0.9 ± 0.2 h. Further, the A280 in data set [2] (setting [3]) is on record as 0.3; in data set [2] (setting [4]), 0.27; in data set [2] (setting [5]), 0.26; in data set [2] (setting [6]) it was 0.124; in data set [2] (setting [7]) it was 0.06; in data set [2] (setting [8]) it was 0.025. Further, the figures for the A280 in data set [2] (setting [9]) and in data set [2] (setting [10]) were 0.021 and 0.019, respectively.
Consider “Val^8-Glu^16-GLP-1(7-37)OH (HVEGTFTSDESSYLEGQAAKEFIAWLVKGRG)”, for which the “Aggregation Time” value in data set [1] is 12 h. The “GLP-1 Receptor Activation” value in the data set with GLP-1 receptor came out at 0.047.
As to “Val^8-Glu^22-Ala^27-GLP-1(7-37)OH (HVEGTFTSDVSSYLEEQAAKAFIAWLVKGRH)”, in data set [1], the “Aggregation Time” value is more than 45 h.
Turning to “Val^8-Glu^22-GLP-1(7-36)NH2 (HVEGTFTSDVSSYLEEQAAKEFIAWLVKGR-NH2)”, the “Aggregation Time” value in data set [1] was more than 65 h. Further, the “GLP-1 Receptor Activation” value in the data set with GLP-1 receptor is 1.0.
“Val^8-Glu^22-Gln^23-GLP-1(7-37)OH (HVEGTFTSDVSSYLEEQAAKEFIAWLVKGRG)”: the “Aggregation Time” value in data set [1] was more than 20 h. The “GLP-1 Receptor Activation” value in the data set on GLP-1 receptor turned out to be 0.47.
For “Val^8-Glu^22-Lys^23-GLP-1(7-37)OH (HVEGTFTSDVSSYLEEKAAKEFIAWLVKGRG)” the same measures were more than 65 h and 1.43.
For “Val^8-Glu^23-GLP-1(7-36)OH (HVEGTFTSDVSSYLEGEAAKEFIAWLVKGR)”, the “Aggregation Time” value in data set [1] worked out at 65 h. For the same substance, in the data set on GLP-1 receptor, the “GLP-1 Receptor Activation” value is listed as 0.28.
Turning to “Val^8-Glu^30-GLP-1(7-37)OH (HVEGTFTSDVSSYLEGQAAKEFIEWLVKGRG)”, the “Aggregation Time” value in data set [1] worked out at 30 h. In the data set on GLP-1 receptor, the “GLP-1 Receptor Activation” value is 0.29.
On to “Val^8-Glu^33-GLP-1(7-37)OH (HVEGTFTSDVSSYLEGQAAKEFIAWLEKGRG)”, for which the “Aggregation Time” value in data set [1] is more than 70 h. Also, the “GLP-1 Receptor Activation” value in the data set with GLP-1 receptor is reported as 0.039.
“Val^8-Glu^34-GLP-1(7-37)OH (HVEGTFTSDVSSYLEGQAAKEFIAWLVEGRG)”: the “Aggregation Time in Hours” value in data set [1] is reported as >40* Hours. Moreover, the “GLP-1 Receptor Activation” value in the data set on GLP-1 receptor was 0.17.
On to “Val^8-Glu^35-GLP-1(7-37)OH (HVEGTFTSDVSSYLEGQAAKEFIAWLVKERG)”, for which the “Aggregation Time” value in data set [1] stood at 63 h. Besides, the “GLP-1 Receptor Activation” value in the data set on GLP-1 receptor came out at 0.15.
For “Val^8-Glu^36-GLP-1(7-37)OH (HVEGTFTSDVSSYLEGQAAKEFIAWLVKGEG)” the same measures were more than 45 h and 0.11.
With “Val^8-Gly^33-GLP-1(7-37)OH (HVEGTFTSDVSSYLEGQAAKEFIAWLGKGRG)”, the “Aggregation Time” value in data set [1] is 9 h. Further, the “GLP-1 Receptor Activation” value in the data set on GLP-1 receptor is 0.01.
“Val^8-Gly^34-Lys^35-GLP-1(7-37)OH (HVEGTFTSDVSSYLEGQAAKEFIAWLVGKRG)”: in data set [1], the “Aggregation Time” value came out at 27 h. Further, the “GLP-1 Receptor Activation” value in the data set on GLP-1 receptor came out at 0.34.
For “Val^8-Gly^36-Pro^37-GLP-1(7-37)NH2 (HVEGTFTSDVSSYLEGQAAKEFIAWLVKGGP-NH2)” the same measures were 2 h and 0.53.
For Val^8-Phe^22-GLP-1(7-37)OH, the A280 is recorded as 0.31 in data set [2] (setting [3]); 0.1485 in data set [2] (setting [4]); 0.1165 in data set [2] (setting [5]); 0.1015 in data set [2] (setting [6]); 0.1265 in data set [2] (setting [7]); 0.092 in data set [2] (setting [8]). Moreover, the A280 in data set [2] (setting [9]) amounted to 0.061; in data set [2] (setting [10]), 0.00795.

These data come from US20060263849A1, “Glucagon-like peptide-1 analogs” (priority 2000, published 2006).
